Experimental data: the RNAGym collection of RNA variant scans (doi:10.7554/elife.80360)

B1: CPEB3 Ribozyme (parent)
chain: GGGGGCCACAGCAGAAGCGUUCACGUCGCGGCCCCUGUCAGAUUCUGGUGAAUCUGCGAAUUCUGCUGU

Variants of: B1
Assay: self-cleavage, relative activity (ratio to wild type); higher = more cleavage; co-transcriptional

Row | Variant | self-cleavage
1 | GGGGGACACAGUAGAAGCGUUCACGUCGCGGCCCCUGUCAGAUUCUGGUGAAUCUGCGAAUUCUGCUGU [C6A C12U] | 0.581
2 | GGGGGACACAGCAGAAGCGUUCACGUCGCGGCCCCUGUCAGAUUCUGGUGAAUCUGCGAAUUGUGCUGU [C6A C63G] | 0.205
3 | GGGGGACACAGCAGAAGCGUUCACGUCGCGGCCCCUGUCAGAUUCUGGUGAAUCUGCGAAUUUUGCUGU [C6A C63U] | 0.505
4 | GGGGGACACAGCAGAAGCGUUCACGUCGCGGCCCCUGUCAGAUUAUGGUGAAUCUGCGAAUUCUGCUGU [C6A C45A] | 0.523
5 | GGGGUCCACAGCAGAAGCGUUCACGUCGCGGCCCCUGUCAGAUUCUGGUGAAUCUGCGAAUCCUGCUGU [G5U U62C] | 0.143
6 | GGGGUCCACAGCAGAAGCGUUCACGUCGCGGCCCCUGUCAGAUUCUGGUGAAUCUGCGAAUGCUGCUGU [G5U U62G] | 0.103
7 | GGGGGACACAGCAGAAGCGUUCACGUCGCGGCCCCUGUGAGAUUCUGGUGAAUCUGCGAAUUCUGCUGU [C6A C39G] | 0.372
8 | GGGGGACAUAGCAGAAGCGUUCACGUCGCGGCCCCUGUCAGAUUCUGGUGAAUCUGCGAAUUCUGCUGU [C6A C9U] | 0.94
9 | GGGGGACACAGCAGAAGCGUUCACGUCGCGGCCCCUGUCACAUUCUGGUGAAUCUGCGAAUUCUGCUGU [C6A G41C] | 0.192
10 | GGGGGACACAGCUGAAGCGUUCACGUCGCGGCCCCUGUCAGAUUCUGGUGAAUCUGCGAAUUCUGCUGU [C6A A13U] | 0.346
11 | GGGGGACACAGCCGAAGCGUUCACGUCGCGGCCCCUGUCAGAUUCUGGUGAAUCUGCGAAUUCUGCUGU [C6A A13C] | 0.262
12 | GGGGGACACAGCAGAAGCGUUCACGUCGCGGCCCCUGUCAGUUUCUGGUGAAUCUGCGAAUUCUGCUGU [C6A A42U] | 0.374
13 | GGGGGACACAGCAGAAGCGUUCACGUCGCCGCCCCUGUCAGAUUCUGGUGAAUCUGCGAAUUCUGCUGU [C6A G30C] | 0.209
14 | GGGGGACACAGCAGAAGCGUUCAUGUCGCGGCCCCUGUCAGAUUCUGGUGAAUCUGCGAAUUCUGCUGU [C6A C24U] | 0.195
15 | GGGGGACACAGCAGAAGCGUUCACGUCGCGGCCGCUGUCAGAUUCUGGUGAAUCUGCGAAUUCUGCUGU [C6A C34G] | 0.144
16 | GGGGGACACAGCAGAAGCGUUCACGUCGCGGCCACUGUCAGAUUCUGGUGAAUCUGCGAAUUCUGCUGU [C6A C34A] | 0.153
17 | GGGGGACACAGCAGAAGCGUUCACGUCGCGGCCCUUGUCAGAUUCUGGUGAAUCUGCGAAUUCUGCUGU [C6A C35U] | 0.27
18 | GGGGGACACAGCAGAAGCGUUCACGUCGCGGCCCGUGUCAGAUUCUGGUGAAUCUGCGAAUUCUGCUGU [C6A C35G] | 0.134
19 | GGGGGACACAGCAGAAGCGUUCACGUCGCGGCCCCUGUCAGAUUCUGGUGACUCUGCGAAUUCUGCUGU [C6A A52C] | 0.519
20 | GGGGUCCACAGCAGAAGCGUUCACGUCGCGGCCCCUGUCAGAUUCUGGUGAAUCUGCGAAGUCUGCUGU [G5U U61G] | 0.0827

Row | Variant | self-cleavage
21 | GGGGGACACAGCAGAAGCGUUCACGUCGGGGCCCCUGUCAGAUUCUGGUGAAUCUGCGAAUUCUGCUGU [C6A C29G] | 0.179
22 | GGGGGACACAGCAGAAGCUUUCACGUCGCGGCCCCUGUCAGAUUCUGGUGAAUCUGCGAAUUCUGCUGU [C6A G19U] | 0.131
23 | GGGGGACACAGCAGAAGCGUUGACGUCGCGGCCCCUGUCAGAUUCUGGUGAAUCUGCGAAUUCUGCUGU [C6A C22G] | 0.155
24 | GGGGGAGACAGCAGAAGCGUUCACGUCGCGGCCCCUGUCAGAUUCUGGUGAAUCUGCGAAUUCUGCUGU [C6A C7G] | 0.0736
25 | GGGGGAUACAGCAGAAGCGUUCACGUCGCGGCCCCUGUCAGAUUCUGGUGAAUCUGCGAAUUCUGCUGU [C6A C7U] | 0.115
26 | GGGGGACGCAGCAGAAGCGUUCACGUCGCGGCCCCUGUCAGAUUCUGGUGAAUCUGCGAAUUCUGCUGU [C6A A8G] | 0.53
27 | GGGGGACACAGCAGAAGCGUUCACGUCGCGGCCCCUGUCAGAUUCUGGUGAAUAUGCGAAUUCUGCUGU [C6A C54A] | 0.282
28 | GGGGGACACAGCAGAAGCGUUCACGUCGCGGCCCCUGUCAGAUUCUGGUGAAUGUGCGAAUUCUGCUGU [C6A C54G] | 0.246
29 | GGGGGACACAGCAGAAACGUUCACGUCGCGGCCCCUGUCAGAUUCUGGUGAAUCUGCGAAUUCUGCUGU [C6A G17A] | 0.131
30 | GGGGGACACAGCAGAAGCGUUCACGUCGCGGCCCCUGUCAGAUUCUGGUGAAUCUGCGCAUUCUGCUGU [C6A A59C] | 0.221
31 | GGGGGACACAGCAGAAGCGUUCACGUCGCGGCCCCUGUCAGAUUCUGGUGAAUCUGCGUAUUCUGCUGU [C6A A59U] | 0.202
32 | GGGGUCCACAGCAGAAGCGUUCACGUCGCGGCCCCUGUCAGAUUCUGGUGAAUCUGCGAAUUCUGCUGA [G5U U69A] | 0.503
33 | GGGGUCCACAGCAGAAGCGUUCACGUCGCGGCCCCUGUCAGAUUCUGGUGAAUCUGCGAAUUCUGCUGC [G5U U69C] | 0.749
34 | GGGGGACACACCAGAAGCGUUCACGUCGCGGCCCCUGUCAGAUUCUGGUGAAUCUGCGAAUUCUGCUGU [C6A G11C] | 0.29
35 | GGGGGACACAGCAGUAGCGUUCACGUCGCGGCCCCUGUCAGAUUCUGGUGAAUCUGCGAAUUCUGCUGU [C6A A15U] | 0.176
36 | GGGGGACACAGCAGGAGCGUUCACGUCGCGGCCCCUGUCAGAUUCUGGUGAAUCUGCGAAUUCUGCUGU [C6A A15G] | 0.467
37 | GGGGUCCACAGCAGAAGCGUUCACGUCGCGGCCCCUGUCAGAUUCUGGUGAAUCUGCGAAUUCUGCAGU [G5U U67A] | 0.743
38 | GGGGUCCACAGCAGAAGCGUUCACGUCGCGGCCCCUGUCAGAUUCUGGUGAAUCUGCGAAUUCUGCCGU [G5U U67C] | 0.628
39 | GGGGGACACAGCAGAAGCGUUCACGUCGCGGCACCUGUCAGAUUCUGGUGAAUCUGCGAAUUCUGCUGU [C6A C33A] | 0.127
